From patent US20240052042A1 (Novartis, published 2024)

T1: human NPR1 on CHO-K1 cells (human, UniProt P16066 33-1061)
T1 sequence: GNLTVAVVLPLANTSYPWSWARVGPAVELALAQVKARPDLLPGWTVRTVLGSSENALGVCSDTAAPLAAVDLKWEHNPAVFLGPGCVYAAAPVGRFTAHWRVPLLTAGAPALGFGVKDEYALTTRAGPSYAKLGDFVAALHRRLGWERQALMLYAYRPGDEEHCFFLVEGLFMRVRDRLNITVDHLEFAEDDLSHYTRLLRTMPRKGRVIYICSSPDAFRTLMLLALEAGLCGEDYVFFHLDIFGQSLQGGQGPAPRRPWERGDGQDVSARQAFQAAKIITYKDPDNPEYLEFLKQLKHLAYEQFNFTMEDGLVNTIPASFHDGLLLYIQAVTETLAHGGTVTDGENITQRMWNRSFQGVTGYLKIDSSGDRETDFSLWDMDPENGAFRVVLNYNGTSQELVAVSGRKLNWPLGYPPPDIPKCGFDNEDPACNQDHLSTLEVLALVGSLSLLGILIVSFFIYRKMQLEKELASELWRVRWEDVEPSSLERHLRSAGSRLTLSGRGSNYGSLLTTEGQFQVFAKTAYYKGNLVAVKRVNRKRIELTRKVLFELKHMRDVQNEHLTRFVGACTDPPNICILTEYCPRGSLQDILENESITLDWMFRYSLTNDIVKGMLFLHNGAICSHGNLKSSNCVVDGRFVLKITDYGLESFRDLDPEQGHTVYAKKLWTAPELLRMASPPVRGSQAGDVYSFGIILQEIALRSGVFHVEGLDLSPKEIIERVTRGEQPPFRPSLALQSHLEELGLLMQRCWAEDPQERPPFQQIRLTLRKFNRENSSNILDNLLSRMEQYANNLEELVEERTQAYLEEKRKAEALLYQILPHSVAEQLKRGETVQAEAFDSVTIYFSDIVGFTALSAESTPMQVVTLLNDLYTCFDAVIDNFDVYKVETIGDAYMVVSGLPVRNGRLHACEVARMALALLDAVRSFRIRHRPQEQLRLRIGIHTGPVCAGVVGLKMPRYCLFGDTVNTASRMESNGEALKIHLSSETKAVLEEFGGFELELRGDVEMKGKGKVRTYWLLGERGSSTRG

T2: human Natriuretic Peptide Receptor 1 (hNPR1) (human, UniProt P16066 33-473, limits assumed)
T2 construct: pannings used NPR1-hFc; also called NPR1-hFc
T2 sequence: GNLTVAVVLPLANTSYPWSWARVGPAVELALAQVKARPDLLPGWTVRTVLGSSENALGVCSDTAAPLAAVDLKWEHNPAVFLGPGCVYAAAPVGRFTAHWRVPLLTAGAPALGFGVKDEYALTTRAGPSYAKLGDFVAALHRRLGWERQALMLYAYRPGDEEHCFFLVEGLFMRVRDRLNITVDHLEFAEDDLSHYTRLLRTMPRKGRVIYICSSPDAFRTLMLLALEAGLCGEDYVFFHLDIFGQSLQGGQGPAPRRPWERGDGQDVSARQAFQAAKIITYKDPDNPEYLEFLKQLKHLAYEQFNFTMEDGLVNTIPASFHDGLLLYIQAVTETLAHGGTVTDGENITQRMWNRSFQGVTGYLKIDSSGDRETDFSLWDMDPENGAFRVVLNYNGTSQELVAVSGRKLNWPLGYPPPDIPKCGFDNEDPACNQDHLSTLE

T3: hNPR1-ANP complex (human, UniProt P01160 124-151, limits assumed)
T3 construct: hNPR1 antigen in the presence of ANP; also called hNPR1 + 100 nM ANP
T3 sequence: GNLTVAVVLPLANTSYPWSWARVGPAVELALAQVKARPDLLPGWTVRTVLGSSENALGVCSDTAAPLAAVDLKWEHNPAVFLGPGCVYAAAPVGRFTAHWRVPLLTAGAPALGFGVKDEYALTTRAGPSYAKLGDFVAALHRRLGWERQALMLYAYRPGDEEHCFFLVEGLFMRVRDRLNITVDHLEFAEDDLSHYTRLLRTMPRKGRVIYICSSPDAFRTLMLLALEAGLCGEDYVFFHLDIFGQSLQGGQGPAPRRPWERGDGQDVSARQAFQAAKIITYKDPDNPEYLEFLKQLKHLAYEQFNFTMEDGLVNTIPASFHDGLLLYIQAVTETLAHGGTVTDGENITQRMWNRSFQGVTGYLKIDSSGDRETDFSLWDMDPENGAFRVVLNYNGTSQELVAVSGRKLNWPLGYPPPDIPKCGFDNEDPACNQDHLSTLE
T3 sequence (peptide): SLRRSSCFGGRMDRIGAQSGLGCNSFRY

T4: human NPR1 on CHO-K1 cells in the presence of ANP (human, UniProt P01160 124-151)
T4 construct: also called hNPR1 CHO K1 + 100 nM ANP
T4 sequence: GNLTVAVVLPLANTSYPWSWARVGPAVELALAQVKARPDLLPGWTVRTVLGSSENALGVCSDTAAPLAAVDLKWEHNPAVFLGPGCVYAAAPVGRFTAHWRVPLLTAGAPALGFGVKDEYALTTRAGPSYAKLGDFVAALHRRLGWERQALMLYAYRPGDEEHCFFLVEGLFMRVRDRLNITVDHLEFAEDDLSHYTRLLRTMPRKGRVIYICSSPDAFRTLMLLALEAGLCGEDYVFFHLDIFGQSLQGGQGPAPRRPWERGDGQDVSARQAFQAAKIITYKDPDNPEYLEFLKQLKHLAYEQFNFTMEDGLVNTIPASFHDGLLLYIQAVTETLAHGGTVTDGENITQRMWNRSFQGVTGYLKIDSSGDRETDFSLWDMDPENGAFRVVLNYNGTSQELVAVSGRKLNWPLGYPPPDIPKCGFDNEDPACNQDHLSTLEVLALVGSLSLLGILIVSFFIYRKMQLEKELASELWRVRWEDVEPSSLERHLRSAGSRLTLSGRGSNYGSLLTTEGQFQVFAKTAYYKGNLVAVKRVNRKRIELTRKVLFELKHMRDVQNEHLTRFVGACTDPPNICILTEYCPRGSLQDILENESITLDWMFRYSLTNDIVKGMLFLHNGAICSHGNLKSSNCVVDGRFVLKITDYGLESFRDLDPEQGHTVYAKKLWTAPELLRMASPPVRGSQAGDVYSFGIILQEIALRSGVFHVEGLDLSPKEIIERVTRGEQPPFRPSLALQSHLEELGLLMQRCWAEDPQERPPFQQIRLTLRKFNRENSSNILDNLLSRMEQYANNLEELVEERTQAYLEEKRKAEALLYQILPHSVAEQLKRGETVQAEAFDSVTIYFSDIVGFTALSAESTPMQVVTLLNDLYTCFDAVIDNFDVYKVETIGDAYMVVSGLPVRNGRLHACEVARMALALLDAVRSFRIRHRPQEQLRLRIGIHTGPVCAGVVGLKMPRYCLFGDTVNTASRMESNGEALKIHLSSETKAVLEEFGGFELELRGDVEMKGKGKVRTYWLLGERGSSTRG
T4 sequence (peptide): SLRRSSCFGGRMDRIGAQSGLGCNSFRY

T5: human NPR3 (counter target) (human, UniProt P17342 27-481, limits assumed)
T5 construct: Pannings used hNPR3-hFc; also called hNPR3; hNPR3-hFc
T5 sequence (looked up): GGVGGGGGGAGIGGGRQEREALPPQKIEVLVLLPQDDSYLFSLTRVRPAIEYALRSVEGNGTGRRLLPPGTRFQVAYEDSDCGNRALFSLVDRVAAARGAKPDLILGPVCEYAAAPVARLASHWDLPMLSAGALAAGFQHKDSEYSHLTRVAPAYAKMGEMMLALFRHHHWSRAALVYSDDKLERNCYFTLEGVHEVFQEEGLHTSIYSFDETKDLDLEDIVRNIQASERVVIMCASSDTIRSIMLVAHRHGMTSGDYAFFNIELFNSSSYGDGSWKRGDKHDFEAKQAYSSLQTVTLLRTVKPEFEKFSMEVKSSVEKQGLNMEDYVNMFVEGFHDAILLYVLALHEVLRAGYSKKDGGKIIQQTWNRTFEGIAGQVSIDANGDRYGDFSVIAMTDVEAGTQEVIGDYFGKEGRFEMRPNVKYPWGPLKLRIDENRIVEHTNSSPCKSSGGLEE

T6: human NPR3 in the presence of ANP (human, UniProt P17342 27-481; P01160 124-151, limits assumed)
T6 construct: also called hNPR3 + 100 nM ANP
T6 sequence (looked up): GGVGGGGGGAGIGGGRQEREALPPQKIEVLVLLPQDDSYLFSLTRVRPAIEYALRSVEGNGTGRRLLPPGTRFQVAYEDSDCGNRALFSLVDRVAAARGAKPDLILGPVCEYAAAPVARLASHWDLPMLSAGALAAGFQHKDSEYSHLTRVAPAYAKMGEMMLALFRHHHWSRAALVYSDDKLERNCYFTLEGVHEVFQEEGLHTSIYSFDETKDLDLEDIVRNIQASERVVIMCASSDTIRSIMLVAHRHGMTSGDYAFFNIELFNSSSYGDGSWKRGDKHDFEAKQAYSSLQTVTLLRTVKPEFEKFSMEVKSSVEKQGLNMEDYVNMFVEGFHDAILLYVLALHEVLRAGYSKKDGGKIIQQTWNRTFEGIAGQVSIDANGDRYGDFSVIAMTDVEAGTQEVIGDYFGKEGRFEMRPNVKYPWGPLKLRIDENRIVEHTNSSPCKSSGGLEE
T6 sequence (peptide, looked up): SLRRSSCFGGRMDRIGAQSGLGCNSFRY


Legend:
[1] = molecular target: T1, human NPR1 on CHO-K1 cells; experiment: cell-based or functional assay
[2] = molecular target: T2, human Natriuretic Peptide Receptor 1 …; experiment: FabCys affinity determination
hNPR1-ANP complex [3] = molecular target: T3, hNPR1-ANP complex; experiment: FabCys affinity determination
[4] = molecular target: T2, human Natriuretic Peptide Receptor 1 …; experiment: FabCys, parental value as in Table 14 (no method comment)
hNPR1-ANP complex [5] = molecular target: T3, hNPR1-ANP complex; experiment: as above
[6] = molecular target: T2, human Natriuretic Peptide Receptor 1 …; experiment: ELISA, IgG
hNPR1-ANP complex [7] = molecular target: T3, hNPR1-ANP complex; experiment: ELISA, IgG
[8] = molecular target: T4, human NPR1 on CHO-K1 cells in the …; experiment: flow cytometry, hNPR1 CHO-K1 cells, IgG
[9] = molecular target: T5, human NPR3 (counter target); experiment: ELISA, IgG titrated on coated antigen, fluorescence [Cont.]
[10] = molecular target: T6, human NPR3 in the presence of ANP; experiment: ELISA, IgG titrated on coated antigen with ANP (250 fold molar excess), fluorescence [Cont.]

cGMP conc [nM] at 1 µM FabCys, +0.075 nM ANP [1] [nM]	cGMP conc [nM] at 1 µM FabCys, without ANP [1] [nM]	Kd [2] [nM]	Kd (hNPR1-ANP complex [3]) [nM]	Kd [4] [nM]	Kd (hNPR1-ANP complex [5]) [nM]	EC50 [6] [nM]	EC50 (hNPR1-ANP complex [7]) [nM]	flow cytometry S/BG at 2 µM IgG [8] [S/BG]	binding result [9]	binding result [10]	Binder
88	77	1.8	590	1.8	590	–	–	–	–	–	YY07 (FabCys format) (Fab, V domains shown, Monovalent FabCys) VH: EVQLVQSGAEVKKPGESLKISCKGSGYSFTSYWISWVRQMPGKGLEWMGIIYPGTSYTRYSPSFQGQVTISADKSISTAYLQWSSLKASDTAMYYCARGSLPGLLGFDHWGQGTLVTVSS VL: QSVLTQPPSVSGAPGQRVTISCTGSSSNIGAGYDVHWYQQLPGTAPKLLIYGNSNRPNGVPDRFSGSKSGTSASLAITGLQAEDEADYYCQSYDSPTSSSVFGGGTKLTVL
–	–	–	–	–	–	42.7	1.4	214	no binding (tested: 1000 nM)	no binding (tested: 1000 nM)	WW03 (IgG format) (antibody, V domains shown, also called WW03_LALA) VH: QVQLLESGGGLVQPGGSLRLSCAASGFTFSSYWMNWVRQAPGKGLEWVSAISSDGSYTYYADSVKGRFTISRDNSKNTLYLQMNSLRAEDTAVYYCARDRYSMIYSYGAGAFDYWGQGTLVTVSS VL: DIQMTQSPSSLSASVGDRVTITCRASQGISSYLAWYQQKPGKAPKLLIYTASTLQSGVPSRFSGSGSGTDFTLTISSLQPEDFATYYCMQSYEKPRTFGQGTKVEIKR
